What all share (assay): cell-based or functional assay
The target of experiment [1] is T1, SARS-CoV-2 spike D614 (pseudovirus) (SARS-CoV-2, UniProt P0DTC2 14-1273).
The target in experiment [2] is T1, SARS-CoV-2 spike D614 (pseudovirus). This is another data set of the same source.
The target is the same in experiment [3]. This is another data set of the same source.
The target is the same in experiment [4]. The source holds these as a separate data set.
The target is the same in experiment [5]. This is another data set of the same source.

Where two headings read alike, the source gives them in different places.

B1: No. 139 antibody (Full IgG) (antibody, V domains shown)
VH: QITLKESGPTLVKPTQTLTLTCSFSGFSLSTSGVGVGWIRQPPGKALEWLALIDWDDNKYHTTSLKTRLTISKDTSKNQVVLTMTNMDPVDTATYYCARIPGFLRYRNRYYYYGMDVWGQGTTVTVSS
VL: ELVLTQPPSVSAAPGQKVTISCSGSSSNIGNNYVSWYQQLPGTAPKLLIYDNNKRPSGIPDRFSGSKSGTSATLGITGLQTGDEADYYCGTWDSSLSAGVFGGGTELTVL
For B1, the IC50 (in general, the concentration needed to halve the response being measured) in experiment [1] came to 0.535 ng/mL; in experiment [2] it was 0.35 ng/mL; in experiment [3], 0.535 ng/mL; in experiment [4], 0.378 ng/mL.

B2: No. 32 antibody (Full IgG; Table 3/4 numbering) (antibody, V domains shown)
VH: EVQLVQSGGGLIQPGGSLRLSCAASEFIVSSNYMTWVRQAPGKGLEWVSIIYPGGSTYYADSVKGRFTISRDNSKNTLYLRMNSLRAEDTAVYYCARDLPLTGTTLDYWGQGTLVTVSS
VL: not shown
As to B2, the IC50 in experiment [5] and in experiment [1] was 4.34 ng/mL in each case.

These data come from KR20220139244A (dated 2022).
